Target: T1, Fn F4-5 (Homo sapiens, UniProt P02751)
T1 construct: amino-acids NH2—I182-V276-COOH of Fn F4-5; made in house; host or cells: Saccharomyces cerevisiae
Experiment: Biacore surface plasmon resonance, binding to immobilized Fn F4-5
Description: Binding of cross-β structure containing peptides/proteins was studied using surface plasmon resonance technology with a Biacore 2000 apparatus (Biacore AB, Uppsala, Sweden). A standardized amine coupling procedure was used to couple proteins with F domains to a CM5 chip (Biacore AB, Uppsala, Sweden). First, the dextran surface of the chips was activated by a 35 μl injection with a 1:1 mixture of 0.1 M N-hydroxysuccinimide (NHS) and 0.4 M N-ethyl-N′-(dimethylaminopropyl)carbodiimide (EDC) at a flow rate of 5 μl min.^−1. Then, the proteins were covalently coupled to the activated dextran surface. Remaining activated groups in each of the four flow channels were blocked by injection of 35 μl of 1 M ethanolamine hydrochloride pH 8.5. EDC, NHS and ethanolamine hydrochloride were obtained from Biacore. On one chip, on channels 1 to 4, buffer (reference channel), the soluble extracellular part of receptor for advanced glycation endproducts (sRAGE), tPA and K2P-tPA were immobilized. […] Binding of albumin-AGE was determined with a solution of 3.9 μg ml^−1 albumin-AGE in running buffer. albumin-AGE was filtered on a Millex-GV 0.22 μm filter unit (Millipore). […] Binding of Hb-AGE was also tested after centrifugation for 10 min. at 16,000*g alternative to filtration. tPA activation before and after filtration was assessed with a Plg-activation assay. […]

T1 sequence (P02751 182-276): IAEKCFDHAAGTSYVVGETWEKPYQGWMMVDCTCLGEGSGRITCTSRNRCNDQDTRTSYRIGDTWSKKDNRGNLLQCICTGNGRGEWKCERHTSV

binding to the Fn F4-5 doublet (Biacore, native Hb at 25 nM): bound | Kd (immobilized Fn F4-5, Biacore CM5 chip, read-out: concentration of ligand that results in half maximum binding to Fn F4-5): 0.165 µM
B1: recombinant β2GPI: recombinant human β2-glycoprotein I made using insect cells (protein)
chain: GRTCPKPDDLPFSTVVPLKTFYEPGEEITYSCKPGYVSRGGMRKFICPLTGLWPINTLKCTPRVCPFAGILENGAVRYTTFEYPNTISFSCNTGFYLNGADSAKCTEEGKWSPELPVCAPIICPPPSIPTFATLRVYKPSAGNNSLYRDTAVFECLPQHAMFGNDTITCTTHGNWTKLPECREVKCPFPSRPDNGFVNYPAKPTLYYKDKATFGCHDGYSLDGPEEIECTKLGNWSAMPSCKASCKVPVKKATVVYQGERVKIQEKFKNGMLHGDKVSFFCKNKEKKCSYTEDAQCIDGTIEVPKCFKEHSSLAFWKTDASDVKPC

— patent US20080220446A1, “Method for Detecting and/or Removing Protein and/or Peptide Comprising a Cross-Beta Structure From an Aqueous Solution Comprising a Protein” (priority 2005, published 2008)
